Results: paper PMC11096372

Molecular target: Cas8b;Cas7b;Cas5b;Cas6b;Cas11b (Synechocystis sp. PCC 6714;Synechocystis sp. PCC 6714;Synechocystis sp. PCC 6714;Synechocystis sp. PCC 6714;Synechocystis sp. PCC 6714) (UniProt A0A068N831+A0A068N458+A0A068N1Y0+A0A068N831)
Test: EMSA
Details: crRNA-loaded Cascade; EMSA: 10 nM labeled DNA, Cascade 0-200 nM, 20 mM HEPES pH 7.5, 100 mM NaCl, 25 C, 1 h; 6% acrylamide gel, 0.5x TBE, cold room; Hill fit

“TAATACGACTCACTATAGGTCGCGGATCCACATTTATCACCGTGTCCCCAATCTGGATATTTTGTGTCTCGAGCACCACCGCTGAGCAATAACTAGC (double strand) [ACA-PAM 97 bp (synPAM-9)]” and “TAATACGACTCACTATAGGTCGCGGATCCATTTTTATCACCGTGTCCCCAATCTGGATATTTTGTGTCTCGAGCACCACCGCTGAGCAATAACTAGC (double strand) [ATT-PAM 97 bp (synPAM-16)]” are within 1.5-fold of each other in Kd: 56.2 nM for the first, 59.7 nM for the second.

Going from “TAATACGACTCACTATAGGTCGCGGATCCATCTTTATCACCGTGTCCCCAATCTGGATATTTTGTGTCTCGAGCACCACCGCTGAGCAATAACTAGC (double strand) [ATC-PAM 97 bp (synPAM-15)]” to “TAATACGACTCACTATAGGTCGCGGATCCACTTTTATCACCGTGTCCCCAATCTGGATATTTTGTGTCTCGAGCACCACCGCTGAGCAATAACTAGC (double strand) [ACT-PAM 97 bp (synPAM-12)]”, the Kd rises from 47.7 nM to 140 nM (2.9-fold).

“TAATACGACTCACTATAGGTCGCGGATCCACGTTTATCACCGTGTCCCCAATCTGGATATTTTGTGTCTCGAGCACCACCGCTGAGCAATAACTAGC (double strand) [ACG-PAM 97 bp (synPAM-10)]” and “TAATACGACTCACTATAGGTCGCGGATCCATGTTTATCACCGTGTCCCCAATCTGGATATTTTGTGTCTCGAGCACCACCGCTGAGCAATAACTAGC (double strand) [ATG-PAM 97 bp (synPAM-14)]” are within 1.5-fold of each other in Kd: 20.6 nM for the first, 18 nM for the second.

Going from “TAATACGACTCACTATAGGTCGCGGATCCACCTTTATCACCGTGTCCCCAATCTGGATATTTTGTGTCTCGAGCACCACCGCTGAGCAATAACTAGC (double strand) [ACC-PAM 97 bp (synPAM-11)]” to “TAATACGACTCACTATAGGTCGCGGATCCATATTTATCACCGTGTCCCCAATCTGGATATTTTGTGTCTCGAGCACCACCGCTGAGCAATAACTAGC (double strand) [ATA-PAM 97 bp (synPAM-13)]”, the Kd falls from 58.2 nM to 24 nM (2.4-fold).
